Where a chain is given by its changes, count along the chain named. Names may count otherwise.

Assay [1] addresses T1, human CD40 on cells (human, UniProt P25942 21-277). The assay is described as follows: cell-based or functional assay.
Assay [2] addresses soluble form of the extracellular domain of human CD40 (Creative BioMart, cat #CD402221H) (human, UniProt P25942 21-193). The experiment in a line: SPR (BIAcore T200); antibody captured by anti-Fc; soluble CD40 injected. How it is done:
(§1) CD40 binding kinetics was analyzed by BIAcore assay with a BIAcore T200 instrument. Briefly, a goat anti-mouse Fc antibody (Pierce, cat #31170) or goat anti-human Fc (Pierce, cat #31125) was immobilized on a CM5 sensor chip, followed by capture of the anti-CD40 antibodies on the test surface.
For orientation: In SPR one partner is held on a chip, and binding of the other changes the refractive index at the surface.

For assay [3], the target named is T2, soluble cynomolgus (cyno) CD40 (Creative BioMart, cat #CD40-8824C) (cynomolgus, UniProt G7PG38 21-193).
T2 construct: extracellular domain; also called Cynomolgus CD40
The description is as above. How it is done:
as §1

Assay [4] deals with T3, Alexa Fluor 488-conjugated soluble human CD40 protein (human, UniProt P25942 21-193, limits assumed, Alexa Fluor 488 conjugate (sites not given)).
T3 construct: also called fluorochrome-conjugated human CD40
T3 sequence (P25942 21-193 limits assumed): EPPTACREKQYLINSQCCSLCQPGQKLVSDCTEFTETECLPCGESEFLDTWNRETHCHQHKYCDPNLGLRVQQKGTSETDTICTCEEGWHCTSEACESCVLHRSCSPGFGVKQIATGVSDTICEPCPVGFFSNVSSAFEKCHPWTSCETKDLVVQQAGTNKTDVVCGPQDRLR
The assay is described as follows: flow cytometry: antibody titrated into 1 µg/mL Alexa Fluor 488-conjugated soluble human CD40 on CD40L+ Jurkat cells; half-maximal enhancement of the binding of CD40 to cell-surface CD40L.

The target of assay [5] is T4, CD40-human Fc (huFc) fusion protein (Creative BioMart) (human, UniProt P25942 21-193).
T4 construct: bought; also called CD40-huFc; not shown: human Fc
T4 sequence (P25942 21-193 limits assumed): as above
The assay is described as follows: ELISA: antibody titrated into 1 µg/mL CD40-huFc, mixture added to plate coated with HA-tagged CD40L, bound complex detected with HRP anti-human Fc; half-maximal enhancement of the signal of CD40-huFc on CD40L. From the text:
After development with TMB (3, 3′, 5, 5′-tetramethylbenzidine) substrate, the plates were read at OD₄₅₀.
(An ELISA detects its analyte on a solid surface through an enzyme-linked reagent.)

Assay [6] deals with T5, human FcγRIIA (CD32a) on CHO cells (human, UniProt P12318 34-317).
T5 construct: whole, on cells
T5 sequence (looked up): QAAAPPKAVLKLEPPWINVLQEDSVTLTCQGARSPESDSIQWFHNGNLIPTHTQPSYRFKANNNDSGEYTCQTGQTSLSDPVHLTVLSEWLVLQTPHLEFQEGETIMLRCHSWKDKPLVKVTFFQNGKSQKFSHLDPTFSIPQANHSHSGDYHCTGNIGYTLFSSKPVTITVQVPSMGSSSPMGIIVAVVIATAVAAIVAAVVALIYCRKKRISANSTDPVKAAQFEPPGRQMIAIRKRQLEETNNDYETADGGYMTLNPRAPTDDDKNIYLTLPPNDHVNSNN
The assay is described as follows: flow cytometry on CHO cells stably expressing human FcγRIIA (CD32a), detection with fluorescence-conjugated anti-human F(ab')2 secondary antibody. As to the method:
(§2) Increasing amounts of anti-CD40 human IgG₁ antibodies and their Fc variants were incubated with CHO cells stably expressing different human Fcγ receptors, including FcγRI (CD64), FcγRIIA (CD32a), FcγRIIB (CD32b), and FcγRIIIA (CD16) with either F or V polymorphism. The binding was detected with a fluorescence-conjugated anti-human F(ab′)2 specific secondary antibody (Jackson ImmunoResearch).

Assay [7] addresses T6, human FcγRIIIA (CD16) with F polymorphism on CHO cells (human, UniProt P08637 17-254).
T6 construct: whole, on cells; also called CD16F
The experiment in a line: flow cytometry on CHO cells stably expressing human FcγRIIIA (CD16F), detection with fluorescence-conjugated anti-human F(ab')2 secondary antibody. As to the method:
as §2
For orientation: Flow cytometry measures light scatter and fluorescence of single cells or particles in a stream.

For assay [8], the target named is T7, human FcγRIIB (CD32b) on CHO cells (human, UniProt P31994 43-310).
T7 construct: whole, on cells
T7 sequence (looked up): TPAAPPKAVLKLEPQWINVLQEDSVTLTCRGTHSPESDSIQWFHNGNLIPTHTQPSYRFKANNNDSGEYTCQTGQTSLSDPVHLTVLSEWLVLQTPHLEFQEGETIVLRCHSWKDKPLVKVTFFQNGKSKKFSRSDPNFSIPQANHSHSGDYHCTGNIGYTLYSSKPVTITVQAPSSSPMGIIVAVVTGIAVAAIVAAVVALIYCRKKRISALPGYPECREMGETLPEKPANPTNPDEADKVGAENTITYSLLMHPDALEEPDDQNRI
The assay is described as follows: flow cytometry on CHO cells stably expressing human FcγRIIB (CD32b), detection with fluorescence-conjugated anti-human F(ab')2 secondary antibody. How it is done: as §2

Assay [9] concerns the target T8, human FcγRIIIA (CD16) with V polymorphism on CHO cells (human, UniProt P08637 17-254).
T8 construct: whole, on cells; V allotype; also called CD16V
The assay is described as follows: flow cytometry on CHO cells stably expressing human FcγRIIIA (CD16V), detection with fluorescence-conjugated anti-human F(ab')2 secondary antibody. How it is done:
as §2

In assay [10] the target is T9, human FcγRI (CD64) on CHO cells (human, UniProt P12314 16-374).
T9 construct: whole, on cells
T9 sequence (P12314 16-374): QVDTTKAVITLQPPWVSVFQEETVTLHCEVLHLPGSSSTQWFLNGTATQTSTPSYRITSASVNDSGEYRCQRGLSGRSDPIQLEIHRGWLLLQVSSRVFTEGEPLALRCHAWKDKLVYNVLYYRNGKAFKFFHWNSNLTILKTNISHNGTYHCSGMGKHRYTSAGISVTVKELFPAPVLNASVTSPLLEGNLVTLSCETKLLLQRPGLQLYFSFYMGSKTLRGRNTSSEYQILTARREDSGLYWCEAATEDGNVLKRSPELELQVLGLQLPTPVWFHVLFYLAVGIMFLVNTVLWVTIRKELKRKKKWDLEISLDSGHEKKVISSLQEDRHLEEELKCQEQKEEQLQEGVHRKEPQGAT
The experiment in a line: flow cytometry on CHO cells stably expressing human FcγRI (CD64), detection with fluorescence-conjugated anti-human F(ab')2 secondary antibody. As to the method: as §2

Assay [11] deals with T1, human CD40 on cells. The assay is described as follows: cell-based or functional assay. This is another data set of the same source.

T1 sequence (P25942 21-277 limits assumed): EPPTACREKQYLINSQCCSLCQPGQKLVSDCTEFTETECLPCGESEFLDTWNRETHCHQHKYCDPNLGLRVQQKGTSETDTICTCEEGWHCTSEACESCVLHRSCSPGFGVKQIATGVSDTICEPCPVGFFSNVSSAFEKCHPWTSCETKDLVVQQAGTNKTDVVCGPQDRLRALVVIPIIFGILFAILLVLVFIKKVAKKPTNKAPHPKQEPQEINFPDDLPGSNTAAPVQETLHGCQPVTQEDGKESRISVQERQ
Chain of soluble form of the extracellular domain of human CD40 (Creative BioMart, cat #CD402221H) (P25942 21-193 limits assumed): as the sequence (P25942 21-193 limits assumed) above
T8 sequence (P08637 17-254 F176V): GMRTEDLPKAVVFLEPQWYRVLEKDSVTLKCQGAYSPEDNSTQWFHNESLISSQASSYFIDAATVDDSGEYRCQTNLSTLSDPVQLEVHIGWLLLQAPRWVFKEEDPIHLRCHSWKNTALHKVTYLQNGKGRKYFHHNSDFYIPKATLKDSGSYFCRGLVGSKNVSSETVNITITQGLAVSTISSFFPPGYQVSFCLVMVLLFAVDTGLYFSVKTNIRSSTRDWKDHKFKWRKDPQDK
T6 sequence (P08637 17-254): as the sequence (P08637 17-254 F176V) above, with V160F counted along it

B1: Humanized muAb9 A2I (antibody, human IgG1, kappa)
heavy: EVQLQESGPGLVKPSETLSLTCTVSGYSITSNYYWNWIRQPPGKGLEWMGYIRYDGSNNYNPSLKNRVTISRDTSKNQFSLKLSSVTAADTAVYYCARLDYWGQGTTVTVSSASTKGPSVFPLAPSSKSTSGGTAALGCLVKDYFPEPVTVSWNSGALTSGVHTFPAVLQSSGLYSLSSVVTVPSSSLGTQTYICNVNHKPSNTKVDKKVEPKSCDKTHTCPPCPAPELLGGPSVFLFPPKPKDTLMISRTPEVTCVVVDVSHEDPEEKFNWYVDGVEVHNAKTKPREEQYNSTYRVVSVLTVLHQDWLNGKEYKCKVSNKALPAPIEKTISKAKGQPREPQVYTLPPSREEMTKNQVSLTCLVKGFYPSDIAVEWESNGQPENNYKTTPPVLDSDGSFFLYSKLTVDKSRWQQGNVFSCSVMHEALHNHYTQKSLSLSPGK
light: DIVMTQTPLSLSVTPGQPASISCRSSQSLENTNGNTFLNWYLQKPGQSPQLLIYRVSNRFSGVPDRFSGSGSGTDFTLKISRVEAEDVGVYYCLQVTHVPFTFGQGTKLEIKRTVAAPSVFIFPPSDEQLKSGTASVVCLLNNFYPREAKVQWKVDNALQSGNSQESVTEQDSKDSTYSLSSTLTLSKADYEKHKVYACEVTHQGLSSPVTKSFNRGEC
notes: human IgG1 V273E/kappa; also called huAb9 A2I; huAb9 A2I (huIgG1 V273E)
In the case of B1, in the assay with human CD40 on cells [1], the “NFκB activity EC50; HEK293 blue CD40 reporter cells co-cultured with CHO cells expressing CD16F” value stood at 0.39 nM, the “NFκB activity EC50; HEK293 blue CD40 reporter cells co-cultured with CHO cells expressing CD16V” value is 0.3 nM, the “NFκB activity EC50; HEK293 blue CD40 reporter cells co-cultured with CHO cells expressing CD32a” value amounted to 0.08 nM and the “NFκB activity EC50; HEK293 blue CD40 reporter cells co-cultured with CHO cells expressing CD32b” value turned out to be 0.07 nM. For the same molecule, in the assay with human CD40 on cells [1], the “NFκB activity EC50; HEK293 blue CD40 reporter cells co-cultured with CHO cells expressing CD64” value came to 0.01 nM and the “NFκB activity EC50; HEK293 blue CD40 reporter cells co-cultured with FcγR negative CHO cells” value is 0.72 nM. In assay [2], the Kd turned out to be 170 nM, the koff came out at 0.22 s⁻¹ and the kon was found to be 1.3e+06 M⁻¹ s⁻¹. In assay [3], this molecule showed an equilibrium dissociation constant (Kd) of 150 nM and a koff of 0.25 s⁻¹. In addition, the concentration giving a half-maximal response (EC50 (read off the curve)) in [4] was approximately 4 µg/mL. The “EC50 (read off the curve)” value in assay [5] is approximately 1 µg/mL.

B2: Humanized muAb9 #5 (antibody, human IgG1, kappa)
heavy: not shown
light: B1 light with I2A
notes: wild type human IgG1/kappa; also called huAb9-5; huAb9-5 with wild type huIgG1
Take B2: the binding result in assay [6] is reported as “binds”; in assay [7], “binds”; in assay [8], “no binding (tested: 100 µg/mL)”; in [9], “binds”. In addition, the “EC50 (read off the curve)” value was approximately 0.5 µg/mL in assay [10] and approximately 0.2 µg/mL in assay [5]. The “Maximal activation (OD655) in HEK293 blue CD40 NFκB reporter cells” value with human CD40 on cells [11] was found to be 0.67 OD655. For the same molecule, the “NFκB activation EC50 (SEAP, OD655) in HEK293 blue CD40 NFκB reporter cells” value with human CD40 on cells [11] was found to be 1.13 µg/mL.

In general, Kd refers to a measure of binding affinity in units of concentration. A high value points to lower affinity. As a reminder, the koff is the rate constant with which the complex falls apart. As usually defined, the kon is the second-order rate constant of association. A low value points to slow association. By EC50 (read off the curve) is commonly meant the midpoint of the concentration-response curve.

Source of the values: patent US20210277137A1 (AbbVie / Abbott, published 2021).
